Earlier results, collected in US20210106646A1, “Combination Of A Novel Topical Gel And Oral Supplements For Healing Diabetic Foot And Other Wounds” (Smart Products & Services Inc. (dba Aloevive), priority 2019, published 2021).

Conditions: topical use, per product website

In the case of “Regranex Gel: Regranex (becaplermin) Gel is a recombinant human platelet-derived growth factor used to treat lower extremity diabetic ulcers”, the “rare but serious side effects” value is given as “allergic reactions such as rash, itching, swelling (especially of the face/tongue/throat), dizziness, and trouble breathing”.
